According to patent US20100150950A1, “HUMAN ANTIBODIES THAT BIND CD70 AND USES THEREOF” (Medarex, Inc., priority 2006, published 2010):

T1: CD70 expressed on the surface of Raji lymphoma cells (Homo sapiens, UniProt P32970)
T1 construct: endogenous in cells; host or cells: Daudi (ATCC CCL-213), HuT 78 (TIB-161), Raji (CCL-86), Granta 519 (DSMZ 342)
T1 sequence (P32970 1-193): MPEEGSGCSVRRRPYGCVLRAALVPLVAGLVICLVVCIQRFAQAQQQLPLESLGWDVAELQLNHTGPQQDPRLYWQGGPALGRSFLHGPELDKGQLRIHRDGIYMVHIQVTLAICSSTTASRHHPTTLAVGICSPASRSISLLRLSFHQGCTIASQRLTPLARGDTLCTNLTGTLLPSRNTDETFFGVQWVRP


Assays:
[1] = target: T1, CD70 expressed on the surface of Raji lymphoma cells; test: Flow cytometry binding to Raji cells; details: antibody 10 μg/ml
Description: Anti-CD70 antibodies were tested for binding to lymphoma cells expressing CD70 on their cell surface by flow cytometry.
The lymphoma cell lines Daudi (ATCC Accession No. CCL-213), HuT 78 (ATCC Accession No. TIB-161) and Raji (ATCC Accession No. CCL-86) were each tested for antibody binding. Binding of the HuMAb 2H5 anti-CD70 human monoclonal antibody was assessed by incubating 1×10^5 cells with 2H5 at a concentration of 1 μg/ml. The cells were washed and binding was detected with a FITC-labeled anti-human IgG Ab. […] Flow cytometric analyses were performed using a FACSCalibur flow cytometry (Becton Dickinson, San Jose, Calif.). The anti-CD70 monoclonal antibody 2H5 bound to the lymphoma cell lines Daudi, HuT 78 and Raji, as measured by the mean fluorescent intensity (MFI) of staining.
The lymphoma cell lines Raji and Granta 519 (DSMZ Accession No. 342) were tested for binding of the HuMAb anti-CD70 human monoclonal antibody 2H5 at varying concentrations. Binding of the anti-CD70 human monoclonal antibodies was assessed by incubating 5×10^5 cells with antibody at a starting concentration of 50 μg/ml and serially diluting the antibody at a 1:3 dilution. An isotype control antibody was used as a negative control. The cells were washed and binding was detected with a PE-labeled anti-human IgG Ab. […]

IM-9 cells = test: ADCC fluorescence cytotoxicity assay, IM-9; type: cell-based, human; details: target to effector ratio 1:50
Description: In this example, a defucosylated and non-defucosylated anti-CD70 monoclonal antibody was tested for the ability to kill CD70+cells in the presence of effector cells via antibody dependent cellular cytotoxicity (ADCC) in a fluorescence cytotoxicity assay
Human Anti-CD70 monoclonal antibody 2H5 was defucosylated as described above. Human effector cells were prepared from whole blood as follows. Human peripheral blood mononuclear cells were purified from heparinized whole blood by standard Ficoll-paque separation. The cells were resuspended in RPMI1640 media containing 10% FBS (culture media) and 200 U/ml of human IL-2 and incubated overnight at 37° C. The following day, the cells were collected and washed once in culture media and resuspended at 2×10^7 cells/ml. […]
The CD70+ cell lines ARH-77 (human B lymphoblast leukemia; ATCC Accession No. CRL-1621), MEC-1 (human chronic B cell leukemia; DSMZ Accession No. ACC 497), SU-DHL-6 (human B cell lymphoma, DSMZ Accession No. Acc572), IM-9 (human B lymphoblast; ATCC Accession No. CCL-159) and HuT 78 (human cutaneous lymphocyte lymphoma; ATCC Accession No. TIB-161), were tested for antibody specific ADCC to the defucosylated and non-defucosylated human anti-CD70 monoclonal antibody 2H5 using the Delfia fluorescence emission analysis as follows. […]

[2] = system: CMV activated CD70+/CD4+ cells; test: CMV Ag stimulated human CD4+ T cell expansion; type: cell-based; details: 2 μg/ml, day 9
Description: CMV positive pre-screened donors were cultured in AIM-V media supplemented with 10% heat-inactivated FCS at 1×10^6 cells/ml on 24-well culture plates and stimulated with 5.0 μg/ml of CMV lysate in the presence of 2 μg/ml of biotinylated 2H5, 2H5 NF or hIgG1nf control Abs. Cells were harvested on day 9 and the number of viable cells/ml in each culture was determined by counting an aliquot using a hemocytometer and trypan blue exclusion. The cells were washed in staining buffer and blocked with 5% human serum. Biotinylated 2H5, 2H5 NF, or hIgG1nf were added to an equal volume of cells at 20 μg/ml final concentration. Cells were incubated for 30 minutes, washed and stained with anti-CD4-FITC and PE-conjugated streptavidin. Cells were again incubated for 30 minutes, washed twice and then fixed and permeabilized using BD Cytofix/Cytoperm kit. The cells were washed twice in perm/wash buffer and intracellular stained with anti-INFγ-APC (BD Clone B27). […] Cells were analyzed by flow cytometry for CD70 surface and INFγ intracellular expression by gating on live CD4+ cells. The number of CD4+/CD70+ and CD4+/INFγ+ cells/ml in each condition were calculated by multiplying the percent CD70+ or INFγ+ cells in the CD4 gate by the percent of total CD4+ cells times the total number of viable cells/ml ((%CD70+ or INFγ+)×(%CD4+)×(total viable cells/ml)).

| Molecule | binding to Raji cells (MFI) [1] | ADCC, % specific lysis of IM-9 (IM-9 cells) | depletion of CMV activated CD70+/CD4+ cells [2] |
| --- | --- | --- | --- |
| anti-CD70 human monoclonal antibody 69A7 (antibody, V domains shown, Human IgG from hybridoma; also called HuMAb 69A7; FITC-conjugated 69A7) VH: QVQLQESGPGLVKPSETLSLTCTVSGGSVSSDYYYWSWIRQPPGKGLEWLGYIYYSGSTNYNPSLKSRVTISVDTSKNQFSLKLRSVTTADTAVYYCARGDGDYGGNCFDYWGQGTLVTVSS VL: EIVLTQSPATLSLSPGERATLSCRASQSVSSYLAWYQQKPGQAPRLLIFDASNRATGIPARFSGSGSGTDFTLTISSLEPEDFAVYYCQQRSNWPLTFGGGTKVEIK | bound |  |  |
| 2H5 NF: 2H5 HuMAb lacking fucosyl residues, expressed in CHO cell line Ms704-PF (antibody, V domains shown) VH: QVQLVESGGGVVQPGRSLRLSCAASGFTFSSYIMHWVRQAPGKGLEWVAVISYDGRNKYYADSVKGRFTISRDNSKNTLYLQMNSLRAEDTAVYYCARDTDGYDFDYWGQGTLVTVSS VL: EIVLTQSPATLSLSPGERATLSCRASQSVSSYLAWYQQKPGQAPRLLIYDASNRATGIPARFSGSGSGTDFTLTISSLEPEDFAVYYCQQRTNWPLTFGGGTKVEIK |  | increased percentage of specific lysis | 97% |
